Experiments:
[1] = target: T1, RBOHF-His (RBOHF residues 1-387 in pET28A) (Arabidopsis, UniProt O48538 1-387); assay: pull-down; glutathione beads with 50 µg DORN1-GST or GST incubated with 50 µg RBOHF-His; 1% NP40, 150 mM NaCl, 50 mM Tris-HCl, 1 mM EDTA, pH 7.5; 4 °C, 2 h; immunoblot with anti-GST and anti-His; conditions: both partners purified
T1 construct: RBOHF of Arabidopsis (AT1G64060), residues 1-387; Cloned into pET28A via EcoRI/XhoI; also called RBOHF with His tag; source: E. coli Rosetta (DE3)
T1 sequence (looked up): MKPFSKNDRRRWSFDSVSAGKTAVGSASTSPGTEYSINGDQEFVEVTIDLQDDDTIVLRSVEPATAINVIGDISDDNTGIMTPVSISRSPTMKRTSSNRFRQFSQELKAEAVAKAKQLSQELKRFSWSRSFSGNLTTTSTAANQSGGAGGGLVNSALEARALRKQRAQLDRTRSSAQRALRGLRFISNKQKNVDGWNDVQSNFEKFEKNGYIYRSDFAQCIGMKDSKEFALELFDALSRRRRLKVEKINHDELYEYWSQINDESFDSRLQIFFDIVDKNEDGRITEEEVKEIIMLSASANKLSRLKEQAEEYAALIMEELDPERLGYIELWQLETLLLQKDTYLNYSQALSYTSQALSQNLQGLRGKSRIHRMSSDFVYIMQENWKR

[2] = target: T2, DORN1-GST (DORN1 residues 344-616 in pGEX-4T-1) (Arabidopsis thaliana (Mouse-ear cress), UniProt Q9LSR8); assay: GST pulldown with anti-His immunoblot
T2 chain: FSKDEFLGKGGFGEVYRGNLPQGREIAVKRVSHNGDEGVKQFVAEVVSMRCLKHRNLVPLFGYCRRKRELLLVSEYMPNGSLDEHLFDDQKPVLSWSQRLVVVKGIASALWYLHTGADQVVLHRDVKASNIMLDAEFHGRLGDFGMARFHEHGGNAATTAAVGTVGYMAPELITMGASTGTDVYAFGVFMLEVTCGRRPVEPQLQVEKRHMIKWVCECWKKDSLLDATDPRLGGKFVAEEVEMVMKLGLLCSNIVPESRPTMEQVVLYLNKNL

B1: DORN1-GST (DORN1 residues 344-616 in pGEX-4T-1) (domain or fragment, Arabidopsis, UniProt Q9LSR8 344-616, looked up)
chain: FSKDEFLGKGGFGEVYRGNLPQGREIAVKRVSHNGDEGVKQFVAEVVSMRCLKHRNLVPLFGYCRRKRELLLVSEYMPNGSLDEHLFDDQKPVLSWSQRLVVVKGIASALWYLHTGADQVVLHRDVKASNIMLDAEFHGRLGDFGMARFHEHGGNAATTAAVGTVGYMAPELITMGASTGTDVYAFGVFMLEVTCGRRPVEPQLQVEKRHMIKWVCECWKKDSLLDATDPRLGGKFVAEEVEMVMKLGLLCSNIVPESRPTMEQVVLYLNKNL
notes: DORN1 of Arabidopsis (AT5G60300), residues 344-616; Printed both as DORN1-GST and as GST–DORN1; cloned into pGEX-4T-1 via EcoRI/XhoI; also called DORN-GST; source: E. coli Rosetta (DE3), on glutathione beads
B1: binds [1].

B2: RBOHF-His (RBOHF residues 1-387 in pET28A) (protein)
chain: MKPFSKNDRRRWSFDSVSAGKTAVGSASTSPGTEYSINGDQEFVEVTIDLQDDDTIVLRSVEPATAINVIGDISDDNTGIMTPVSISRSPTMKRTSSNRFRQFSQELKAEAVAKAKQLSQELKRFSWSRSFSGNLTTTSTAANQSGGAGGGLVNSALEARALRKQRAQLDRTRSSAQRALRGLRFISNKQKNVDGWNDVQSNFEKFEKNGYIYRSDFAQCIGMKDSKEFALELFDALSRRRRLKVEKINHDELYEYWSQINDESFDSRLQIFFDIVDKNEDGRITEEEVKEIIMLSASANKLSRLKEQAEEYAALIMEELDPERLGYIELWQLETLLLQKDTYLNYSQALSYTSQALSQNLQGLRGKSRIHRMSSDFVYIMQENWKR
B2: binds [2].

— PMC9409277, “Ethyl Vinyl Ketone Activates K^+ Efflux to Regulate Stomatal Closure by MRP4-Dependent eATP Accumulation Working Upstream of H2O2 Burst in Arabidopsis” (International Journal of Molecular Sciences, 2022)
